Measurements reported in publication PMC12764052.

Target: Pyruvate kinase M2 isoform (human (endogenous in AGS and HGC27)) (UniProt P14618)
Test: cross-linking

Sequence of Pyruvate kinase M2 isoform, P14618 1-531 (natural protein; other documents disagree on this pair) (P14618 whole entry, canonical isoform): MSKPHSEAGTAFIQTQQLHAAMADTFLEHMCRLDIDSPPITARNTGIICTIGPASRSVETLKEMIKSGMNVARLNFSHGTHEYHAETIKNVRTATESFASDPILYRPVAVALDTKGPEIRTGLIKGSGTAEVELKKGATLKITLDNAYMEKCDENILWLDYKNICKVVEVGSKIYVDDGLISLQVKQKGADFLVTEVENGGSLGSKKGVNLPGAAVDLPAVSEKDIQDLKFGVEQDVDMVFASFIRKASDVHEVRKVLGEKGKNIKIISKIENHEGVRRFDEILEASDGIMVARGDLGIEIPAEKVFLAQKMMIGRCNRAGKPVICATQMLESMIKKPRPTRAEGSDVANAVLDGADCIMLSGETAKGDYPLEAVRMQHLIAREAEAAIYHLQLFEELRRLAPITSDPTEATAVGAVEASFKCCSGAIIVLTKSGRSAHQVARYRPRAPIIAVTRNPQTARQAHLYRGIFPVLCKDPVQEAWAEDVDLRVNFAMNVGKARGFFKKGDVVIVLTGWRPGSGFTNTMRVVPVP

stoichiometry N: 2
Substance: Pyruvate kinase M2 isoform, P14618 1-531 (natural protein; other documents disagree on this pair)
